What all share (assay): BLI; biotinylated peptide on streptavidin biosensor tips, chromodomain in solution at 5 or 1 µM; 25 °C; 25 mM HEPES pH 7.0, 150 mM NaCl, 1 mg/ml BSA, 0.01% Tween-20; steady-state fit, Langmuir model; values of single replicates
What all share (settings): both partners purified

One test has as its target T1, Cbx7.V1 back-mutant E33K (human, UniProt O95931 7-66, E8D (printed as the back-mutation D8E) | Q9D | V10I (printed as the …)).
T1 construct: chromodomain of human Cbx7, variant V1 with residue 33 put back to the wild type; residues numbered on full-length Cbx7; Tags probably still on the protein in BLI (removal is told for FP and ITC only); source: E. coli BL21(DE3), purified (Ni-NTA)
T1 sequence: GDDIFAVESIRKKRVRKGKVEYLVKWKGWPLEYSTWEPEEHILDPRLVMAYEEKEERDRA

A further test concerns the target T2, Cbx7.V1 back-mutant E38K (human, UniProt O95931 7-66, E8D (printed as the back-mutation D8E) | Q9D | V10I (printed as the …)).
T2 construct: chromodomain of human Cbx7, variant V1 with residue 38 put back to the wild type; residues numbered on full-length Cbx7; Tags probably still on the protein in BLI (removal is told for FP and ITC only); source: E. coli BL21(DE3), purified (Ni-NTA)
T2 sequence: T1 sequence with K27E, E32K

For a further test, the target named is T3, Cbx7.V1 back-mutant L37P (human, UniProt O95931 7-66, E8D (printed as the back-mutation D8E) | Q9D | V10I (printed as the …)).
T3 construct: chromodomain of human Cbx7, variant V1 with residue 37 put back to the wild type; residues numbered on full-length Cbx7; Tags probably still on the protein in BLI (removal is told for FP and ITC only); source: E. coli BL21(DE3), purified (Ni-NTA)
T3 sequence: T1 sequence with K27E, L31P

Another test has as its target T4, Cbx7.V1 back-mutant I10V (human, UniProt O95931 7-66, E8D (printed as the back-mutation D8E) | Q9D | K33E | P37L (printed as the …)).
T4 construct: chromodomain of human Cbx7, variant V1 with residue 10 put back to the wild type; residues numbered on full-length Cbx7; Tags probably still on the protein in BLI (removal is told for FP and ITC only); source: E. coli BL21(DE3), purified (Ni-NTA)
T4 sequence: T1 sequence with I4V, K27E

The target of test [1] is T5, Cbx7.V1 chromodomain variant (protein used for BLI) (human, UniProt O95931 7-66, E8D (printed as the back-mutation D8E) | Q9D | V10I (printed as the …)).
T5 construct: chromodomain of human Cbx7 with the six substitutions of the phage-selected variant V1; residues numbered on full-length Cbx7; for BLI they were probably still on the protein; source: E. coli BL21(DE3), purified (Ni-NTA)
T5 sequence: T1 sequence with K27E

For a further test, the target named is T6, Cbx7.V1 back-mutant D8E (human, UniProt O95931 7-66, Q9D | V10I (printed as the back-mutation I10V) | K33E | P37L (printed as the …)).
T6 construct: chromodomain of human Cbx7, variant V1 with residue 8 put back to the wild type; residues numbered on full-length Cbx7; Tags probably still on the protein in BLI (removal is told for FP and ITC only); source: E. coli BL21(DE3), purified (Ni-NTA)
T6 sequence: T1 sequence with D2E, K27E

Changes are numbered by the printed parent chain. Several values for one entry are separate records, joined by “and”; a condition that tells them apart may be missing. Equal values may be shown once.

B1: H3K9me3 peptide, biotinylated (peptide)
chain: ARTKQTARKSTGGKAPR
modifications: trimethyl-lysine at K9; biotin followed by an aminohexanoic acid linker at the N-terminus
For the molecule B1, the Kd with Cbx7.V1 back-mutant E33K was 8.5 µM and 12 µM; in the test with Cbx7.V1 back-mutant E38K, 1.9 µM and 2.1 µM; with Cbx7.V1 back-mutant L37P it was 2.7 µM and 3.3 µM; in the test with Cbx7.V1 back-mutant I10V, 4 µM and 3 µM; in test [1] it was 4.9 µM and 4.2 µM; in the test with Cbx7.V1 back-mutant D8E, 5.3 µM and 4.7 µM.

The record behind these values is publication PMC9666628 (Nature Communications, 2022).
